# No end group written: not given here.
# Assays:
# HLA-A*0206 = HLA-A*0206 (Homo sapiens, UniProt P04439, D140Y/D185E/D98H/E176V/E277Q/F33Y/G131W/G231S/I119V/I121R/I166T/I218V/L300P/L318F/N151K/N90K/P208A/P217A/Q86G/Q94H/R138H/R169H/T345S); assay: purified HLA class I binding assay, A*0206
# HLA-A*0202 = HLA-A*0202 (Homo sapiens, UniProt P04439, D140Y/D185E/D98H/E176V/E277Q/G131W/G231S/I119L/I121R/I166T/I218V/L180W/L300P/L318F/N151K/N90K/P208A/P217A/Q67R/Q86G/Q94H/R138H/R169H/T345S); assay: purified HLA class I binding assay, A*0202
# HLA-A*6802 = HLA-A*6802 (Homo sapiens, UniProt P04439, A269V/D140Y/D185E/E176V/E277Q/E87N/F33Y/G231S/I121R/I166T/I218V/L180W/L300P/L318F/N151K/P208A/P217A/Q86R/R138H/R169H/S129P/T345S/V36M); assay: purified HLA class I binding assay, A*6802
# HLA-A*0203 = HLA-A*0203 (Homo sapiens, UniProt P04439, A173T/D140Y/D185E/D98H/E277Q/G131W/G231S/I119V/I121R/I166T/I218V/L180W/L300P/L318F/N151K/N90K/P208A/P217A/Q86G/Q94H/R138H/R169H/T345S); assay: purified HLA class I binding assay, A*0203
# HLA-A*3101 = HLA-A*3101 (Homo sapiens, UniProt P04439, A270S/D185E/E176V/E277Q/F33T/G231S/G80R/H175R/I121M/I218V/I322F/K168Q/L300P/L318F/M331R/P217A/Q94H/R138Q/T323A/T345S/T97I/V358M); assay: purified HLA class I binding assay, A*3101; conditions: binding value
# HLA-A*0301 = target: T1, HLA-A*0301 (Homo sapiens, UniProt P04439); assay: purified HLA class I binding assay, A*0301; conditions: for A*0301 binding information: binding value
# T1 construct: endogenous in cells; host or cells: GM3107
# HLA-A*1101 = HLA-A*1101 (Homo sapiens, UniProt P04439, A114D/D185E/E176A/F33Y/L180Q/S129P/T187R); assay: purified HLA class I binding assay, A*1101
# HLA-A*6801 = HLA-A*6801 (Homo sapiens, UniProt P04439, A269V/D185E/E176V/E277Q/E87N/F33Y/G231S/I121M/I166T/I218V/L180W/L300P/L318F/N151K/P208A/P217A/Q86R/R169H/T345S); assay: purified HLA class I binding assay, A*6801; conditions: binding value
# HLA-A*0201 = HLA-A*0201 (Homo sapiens, UniProt P04439, D140Y/D185E/D98H/E176V/E277Q/G131W/G231S/I119V/I121R/I166T/I218V/L300P/L318F/N151K/N90K/P208A/P217A/Q86G/Q94H/R138H/R169H/T345S); assay: purified HLA class I binding assay, A*0201; conditions: for A*0201 (binding information): Table VIII, unit not given
# HLA-A*2402 = HLA-A*2402 (Homo sapiens, UniProt P04439, D101N/D140Y/D185E/E176V/E190D/F33S/G103R/G107R/I119L/I121M/I306V/K335N/L105A/L180Q/L300P/N151K/N90K/Q86E/Q94H/R106L/R138H/R89G/T104I/T345S/V100E/W191G/Y123F); assay: purified HLA class I binding assay, A*2402
# HLA-DRB1*0701 (DR7) = target: T2, HLA-DRB1*0701 (DR7) (Homo sapiens, UniProt P01903+P01911, A100R/A102G/A103Q/D57E/D86V/E43K/F76Y/K127E/L162R/M171V/P40G/Q125H/Q99D/R33Q/R42Y/R54Q/S133A/S66F/T210M/V115G/Y107V/Y59L/Y89S); assay: biochemical; format: binding
# T2 construct: endogenous in cells; host or cells: Pitout
# HLA-DRB1*0401 (DR4w4) = target: T3, HLA-DRB1*0401 (DR4w4) (Homo sapiens, UniProt P01903+P01911, A100K/A169T/F76Y/I96L/K127E/L162R/M171V/N62H/P40V/Q125Y/R42H/S133A/S149N/S66Y/V115G/V209L/W38E); assay: purified HLA class II binding assay, DRB1*0401 (DR4w4); conditions: HIV DR super motif peptides; unit not given
# T3 construct: endogenous in cells; host or cells: Preiss
# T3 sequence (P01903 26-254 partner, other chains not shown): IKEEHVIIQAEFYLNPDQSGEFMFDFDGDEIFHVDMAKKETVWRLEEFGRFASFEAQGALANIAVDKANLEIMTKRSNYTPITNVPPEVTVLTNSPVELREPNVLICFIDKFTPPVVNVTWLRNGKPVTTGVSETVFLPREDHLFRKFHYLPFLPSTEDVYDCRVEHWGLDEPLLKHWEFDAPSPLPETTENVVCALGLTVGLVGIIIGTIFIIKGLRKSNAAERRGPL
# [1] = Table IX, HIV A03 super motif peptides, unit not given
# [2] = Table IX, HIV A03 super motif peptides, binding value, unit not given
# [3] = Table XVII, HIV A11 motif peptides, binding value A*1101, unit not given
# [4] = HIV A24 supermotif peptides, Table X, A*2401, unit not given
# [5] = HIV A03 supermotif peptides, no unit given
# [6] = Table VIII, HIV A02 Super Motif Peptides with Binding Information, unit not given
# [7] = HIV A24 supermotif peptides, purified HLA molecule, no unit printed in Table X
compound,measurement,setting,value
CC[C@H](C)[C@H](NC(=O)[C@H](C)N)C(=O)N[C@H](C(=O)N[C@@H](CCCNC(=N)N)C(=O)N[C@H](C(=O)N[C@@H](CC(C)C)C(=O)N[C@@H](CCC(N)=O)C(=O)N[C@@H](CCC(N)=O)C(=O)N[C@@H](CC(C)C)C(=O)O)[C@@H](C)CC)[C@@H](C)CC [Peptide 1261.11],IC50,HLA-A*0206,38.5 nM
same,IC50,HLA-A*0202,22.6 nM
same,IC50,HLA-A*6802,548 nM
CSCC[C@H](N)C(=O)N[C@@H](C)C(=O)N[C@@H](CO)C(=O)N[C@@H](CC(=O)O)C(=O)N[C@@H](Cc1ccccc1)C(=O)N[C@@H](CC(N)=O)C(=O)N[C@@H](CC(C)C)C(=O)N1CCC[C@H]1C(=O)N1CCC[C@H]1C(=O)N[C@H](C(=O)O)C(C)C [Peptide 1261.15],IC50,HLA-A*0203,55.6 nM
same,IC50,HLA-A*0206,33.6 nM
same,IC50,HLA-A*0202,22.6 nM
same,IC50,HLA-A*6802,18.2 nM
ASCDKCQLK,A*3101 binding information,HLA-A*3101; [1],0.0020
same,A0301 (HIV A03 Motif Peptides with Binding Information),"HLA-A*0301; HIV POL-derived A03 motif peptides, binding value for purified HLA-A*0301, unit not given",0.0027
same,A*0301 binding information,HLA-A*0301; [1],0.0027
same,A*1101 (binding information),HLA-A*1101; [2],0.0140
same,A*1101 (binding information),HLA-A*1101; [3],0.0040
same,A*6801 binding information,HLA-A*6801; [1],0.0001
DIQIKELQK,A*3101 binding information,HLA-A*3101; [1],0.0006
same,A*0301 binding information,HLA-A*0301; [1],0.0009
same,A*1101 (binding information),HLA-A*1101; [2],0.0006
same,A*6801 binding information,HLA-A*6801; [1],0.0001
FLGAAGSTM [1211.05],IC50,HLA-A*0203,1.5 nM
same,IC50,HLA-A*0206,4110 nM
same,IC50,HLA-A*0201,73.5 nM
same,IC50,HLA-A*0202,3580 nM
same,IC50,HLA-A*6802,66700 nM
FTTPDKKIIQK,A*3101 binding information,HLA-A*3101; [1],0.0010
same,A*0301 binding information,HLA-A*0301; [1],0.0002
same,A*1101 (binding information),HLA-A*1101; [2],0.0150
same,A*1101 (binding information),HLA-A*1101; [3],0.0150
same,A*6801 binding information,HLA-A*6801; [1],0.0273
GIPHPAGLK,A*3101 binding information,HLA-A*3101; [1],0.0007
same,A*1101 (binding information),HLA-A*1101; [2],0.0650
same,A*6801 binding information,HLA-A*6801; [1],0.0110
GYELIIPDKW,A*2401 (binding information),HLA-A*2402; [4],0.0001
IWQLDCTIIL,A*2401 (binding information),HLA-A*2402; [4],0.0095
IYQEPIKNL,A*2401 (binding information),HLA-A*2402; [4],0.0520
KLTEERWNK,A*3101 binding information,HLA-A*3101; [5],0.0680
same,A*0301 binding information,HLA-A*0301; [5],0.0130
same,A*1101 (binding information),"HLA-A*1101; HIV A03 supermotif peptides, binding value, no unit given",0.2700
same,A*6801 binding information,HLA-A*6801; [5],0.0002
KMIGGIGGPI,A*2401 (binding information),"HLA-A*2402; HIV A24 motif peptides, purified HLA-A24 molecule, unit not given",0.0001
LIFGWCFKLV,A*0203 binding information,HLA-A*0203; [6],0.0540
same,A*0206 binding information,HLA-A*0206; [6],0.0640
same,A*0201 (binding information),HLA-A*0201; HIV A02 Super Motif Peptides with Binding Information,0.0170
same,A*0202 binding information,HLA-A*0202; [6],0.0880
same,A*6802 binding information,HLA-A*6802; [6],6.5000
NMVEQMIIEDI,A*0201 (binding information),HLA-A*0201; HIV A02 super motif peptides,0.0001
same,A*2401 (binding information),HLA-A*2402; [7],0.0004
NMWQEVGKA,A*0201 (binding information),HLA-A*0201; HIV A02 super motif peptides,0.0022
same,A*2401 (binding information),HLA-A*2402; [7],0.0001
NNLLRAIEAQQIILLQ,DR7 binding,HLA-DRB1*0701 (DR7),0.0150
same,DR4w4 binding,HLA-DRB1*0401 (DR4w4),0.0150

# — US20050271676A1, “Inducing cellular immune responses to human immunodeficiency virus-1 using peptide and nucleic acid compositions” (Epimmune Inc., priority 1993, published 2005)
